Assay results from the RNAGym collection of RNA variant scans (doi:10.7554/elife.80360).

B1: Hairpin Ribozyme (parent)
chain: GUCCUCUUUCACGUGCGCGUGAAAGAGAGAAGUGAACCAGAGAAACACACGUUGUGGUAUAUUACCUGGUA

Variants of: B1
Assay: self-cleavage, relative activity (ratio to wild type); higher = more cleavage; co-transcriptional

Variant	self-cleavage
G29U G57A	0.172
A28U A45C	0.0951
A28U A45U	0.224
G29C C66G	0.137
G29C C66A	0.182
G29C C66U	0.135
G29A U67C	0.106
G29A U67A	0.0562
G29A U67G	0.0868
A28C G69U	0.0989
A28G A47G	0.198
A28U U63A	0.128
A28G G69U	0.331
A28U U70G	0.338
G27U G51U	0.402
A28C A61G	0.1
G29A A47G	0.244
A30C C37U	0.0704
A30C C37G	0.277
G29A A59C	0.138
G29A A59G	0.162
G29U U70G	0.315
A28U U67C	0.12
A28U U67A	0.0994

Variant	self-cleavage
G29U G68A	0.097
A28U U60G	0.3
A28U C38G	0.0619
A28U C38A	0.159
A28U G54C	0.219
A28U G54A	0.32
G27U G34C	1.16
G29U G56U	0.143
G27U U62G	0.0869
G29C A36C	0.179
G29C A36U	0.0836
G29C C48A	0.136
G29U G54C	0.12
A28C G57U	0.0228
A28C G57C	0.145
A28U A36G	0.656
G27U U63C	0.0849
G29A G40A	0.133
A28C G40A	0.131
A30C C48G	0.126
G27U C38A	0.12
G27U C38G	0.17
A30C G51C	0.0477
A30C G51A	0.26

Variant	self-cleavage
A28U U55A	0.235
A28C C65U	0.249
A28C C65A	0.231
A28C C66A	0.0844
G29A C50A	0.168
G29C G68C	0.124
A30C A59U	0.169
A30C A59C	0.0289
A30C A59G	0.0647
A30C A44U	0.106
A30C A44G	0.145
A28G G57C	0.263
G29A G54A	0.141
G29A U58A	0.165
A28G G68U	0.372
A28C G29A	0.199
G29A A43U	0.0816
G29A A43G	0.205
G27U C48U	0.099
A28U G51A	0.716
A30C A41C	0.315
G27U G42U	0.188
G27U A36U	0.0647
G27U A36G	0.393

Variant	self-cleavage
A28G C50A	0.415
A28C A59C	0
G29A G69A	0.117
G29C C65U	0.135
A28U A30G	0.0577
A28U A30C	0.167
G29A A61U	0.096
A28C A30G	0.136
A28C A30U	0.126
A28C A30C	0.0316
A30C A39U	0.0707
A30C A39C	0.12
G27U U67C	0.0907
G27U U67G	0.111
A30C C50A	0.0998
G27U G40A	0.117
G29C A41U	0.103
G29A A39U	0.107
G29U C50U	0.163
G27U G54A	0.26
G27U G54C	0.133
G27U G54U	0.208
A28C U60C	0.558
A28C U60G	0.383

Variant	self-cleavage
G27U A64G	0.205
G29C U53C	0.252
A28U U53C	0.769
G29C U67G	0.12
G29U A43C	0.0797
G29A U60G	0.0375
G29A U60C	0.144
G29A U60A	0.137
A28U U52G	0.374
G29A A71U	0.126
G29U A71C	0.152
G29U	0.132
G29A	0.126
G29C	0.133
A30C G32U	0.188
A30C G32C	0.12
A28C C37G	0.199
G29C A47U	0.093
G27U C50U	0.214
G27U C50G	0.175
G29C G51A	0.125
G29C G51C	0.103
G29C A64U	0.192
A28G U62C	0.302

Variant	self-cleavage
G29C A31G	0.187
A28C A44U	0.046
G29C U55A	0.164
G27U U55A	0.152
A30C A35U	0.156
A30C A35G	0.217
G29C A44U	0.18
G29U C65G	0.0526
A28U A44G	0.25
A28U A44C	0.179
G29C U70C	0.133
G27U U60A	0.243
G29A C65G	0.158
G29A C65A	0.0759
A28U G57A	0.152
A30C A71U	0.104
G29U G51A	0.139
G29U G51U	0.121
A28C U33A	0.145
A28C U33G	0
G29U U58A	0.154
G29U A30C	0.154
G29U C48U	0.124
G29U C48A	0.0831

Variant	self-cleavage
A28C G51U	0.746
A28G G54C	0.432
G29A U33C	0.0835
G29A C46A	0.0992
G29A C46G	0.0584
G29A C46U	0.238
A28G C46U	0.137
A28C G56A	0.137
A28C G56U	0.0871
A30C A64C	0.127
A30C A64U	0.211
A30C A64G	0.0788
G29C A45C	0.207
G27U G69U	0.152
G27U G69C	0.2
G27U G69A	0.0822
A28U U58C	0.58
G29A C38U	0.19
A28U G34C	1.23
A28U G34U	1.41
G29C U62C	0.113
G29A G56U	0.111
A28G G40C	0.166
G29A U62C	0.0819

Variant	self-cleavage
A28G A30U	0.0576
G29U G34U	0.124
G27U C65U	0.125
G27U C65G	0.188
A28G A36C	0.778
G29A A44C	0.17
G29A A44G	0.113
G29U U63C	0.084
G29U U60A	0.169
G29C U33C	0.224
G29C U33G	0.13
A28U G40U	0.13
G29A A41G	0.106
G29A A41C	0.053
G29U A64C	0.142
A28C G68U	0.214
A28C G68A	0.182
A28C A49G	0.173
A28C A49U	0.192
G27U G57U	0.144
G27U G57A	0.209
A28G U67G	0.294
A28G U70G	0.978
A28G A45C	0.279

Variant	self-cleavage
A28C G54A	0.301
A28C G54C	0.187
A28C C50U	0.168
A28G A44C	0.202
G29U A36U	0.104
A28G U33G	0.211
G29C A43U	0.0794
G29U A61G	0.223
G29U A47G	0.0517
G29U U53A	0.103
A28U C66A	0.194
A28C U52C	0.584
G27U U70G	0.228
G29C C38G	0.122
G29C C38U	0.145
A28G A39U	0.536
A28G A39C	0.748
A28C G34U	1.23
A28C G34A	0.753
A28G C48U	0.276
G29U U67C	0.101
A28U C50U	0.1
G29C C37A	0.14
G29C C37G	0.084

Variant	self-cleavage
G29C A71U	0.21
A30C C65U	0.12
A30C C65A	0.0386
A28U A47U	0.125
A28U A47G	0.0453
A28G C66A	0.231
G29C C46U	0.171
G29C C46A	0.111
A28C C48A	0.122
A28C A41G	0.352
G27U A47U	0.192
A28C U70G	0.322
A28C U70C	0.426
G29U G42U	0.107
A28G C37U	0.644
A28U U33A	0.152
A28U U33C	0.079
G29A A31G	0.145
G29A A31U	0.178
G29U A44C	0.251
G29U A44U	0.125
A28G U55G	0.427
G29A A45C	0.0675
G29A A45U	0.0463

Variant	self-cleavage
G29A G32U	0.0536
A28C U55A	0.155
A30C A61G	0.12
A30C A61U	0.097
G29A U53C	0.234
G29A U53G	0.0705
G29U A59C	0.0619
A30C A47G	0.0558
A28G U58C	0.791
A28G U58G	0.91
G29U A41G	0.082
G29U A41U	0.116
A30C C66A	0.0863
A30C G34C	0.79
G29U C38U	0.1
A30C G42A	0.0752
A30C G42U	0.111
A30C G42C	0.094
G29A G42U	0.197
G29A G42C	0.0675
G29A C48U	0.0646
G29A C48A	0.131
A28G A43C	0.153
A28G G42C	0.47

Variant	self-cleavage
A28C A64C	0.245
A28C A64G	0.285
A28C A64U	0.237
G27U A49G	0.214
A28G G56A	0.296
A28G G56C	0.0641
A28G G56U	0.165
A28G C65U	0.498
G27U C37U	0.22
G27U C37G	0.109
A28U A43U	0.132
A28U A43C	0.133
G29A A30G	0.135
A28G U52A	0.814
G27U A59U	0.146
A30C A43C	0.261
A28U A49G	0.365
G29U U52C	0.178
G27U C66A	0.169
G29C G57C	0.131
G29A A49G	0.138
G27U U52G	0.114
G27U U52C	0.377
G29A A36U	0.278

Variant	self-cleavage
G29A A36C	0.0858
G29U A35G	0.137
G29U A35C	0.11
G27U A61U	0.107
G27U A61G	0.171
G29U G69U	0.099
A30C G40U	0.0963
A30C G40A	0.116
A30C G40C	0.0198
A28G A31C	0.113
A28U G69C	0.219
A28U C37A	0.143
G29C G54U	0.162
G29A U52C	0.156
G29U G40A	0.121
G29U G40C	0.0749
G29U G40U	0.147
G29C G56U	0.0807
A28C A39G	0.171
A28G A41U	1.05
G29A G51U	0.0861
G29A G51A	0.138
G29C U63A	0.217
A28U C48G	0.195

Variant	self-cleavage
A30C C38U	0.209
A30C C38A	0.183
A30C C38G	0.0718
G29A A64U	0.134
G29A A64C	0.115
G29A C66U	0.194
G27U A39G	0.149
A28G G29A	0.13
G29A U63G	0.116
G29A U63A	0.124
A28G A71C	1.26
A28G A71G	0.941
G29A G34A	0.201
A28U A31C	0.251
G29U C66G	0.233
G29U C66A	0.205
G27U G32C	0.129
A28C G42U	0.0852
A28C U58C	0.545
A28G G51A	1.25
G29U C37U	0.192
G29C G42C	0.142
